Measured values as given in patent US20080305212A1.

What was measured:
Experiment in all cases: cell-based or functional assay
[1] = molecular target: T1, Trypsin-like protease (TL5) from Fusarium solani (Fusarium solani)
T1 sequence: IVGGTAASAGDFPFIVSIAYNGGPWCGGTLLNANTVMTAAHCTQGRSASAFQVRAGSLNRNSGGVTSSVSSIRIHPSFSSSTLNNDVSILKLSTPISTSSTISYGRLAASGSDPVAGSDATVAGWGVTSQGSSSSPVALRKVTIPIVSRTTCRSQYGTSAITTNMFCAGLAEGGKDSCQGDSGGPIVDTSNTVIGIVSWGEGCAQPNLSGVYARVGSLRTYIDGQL

bovine trypsin (bovine) = bovine trypsin (bovine) (UniProt P00760)
[2] = molecular target: T2, Trypsin-like protease (TL6) from Fusarium cf. solani (Fusarium cf. solani)
T2 sequence: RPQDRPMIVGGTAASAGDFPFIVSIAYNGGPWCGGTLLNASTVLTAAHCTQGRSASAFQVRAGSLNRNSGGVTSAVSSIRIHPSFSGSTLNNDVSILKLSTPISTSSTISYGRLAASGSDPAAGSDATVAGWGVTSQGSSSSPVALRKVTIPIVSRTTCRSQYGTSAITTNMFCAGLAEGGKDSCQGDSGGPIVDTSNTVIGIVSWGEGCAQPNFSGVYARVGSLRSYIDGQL

[3] = molecular target: porcine trypsin (porcine) (UniProt P00761)
[4] = molecular target: T3, Trypsin-like protease (TL1) from Fusarium oxysporum (Fusarium oxysporum) (UniProt P35049)
T3 sequence: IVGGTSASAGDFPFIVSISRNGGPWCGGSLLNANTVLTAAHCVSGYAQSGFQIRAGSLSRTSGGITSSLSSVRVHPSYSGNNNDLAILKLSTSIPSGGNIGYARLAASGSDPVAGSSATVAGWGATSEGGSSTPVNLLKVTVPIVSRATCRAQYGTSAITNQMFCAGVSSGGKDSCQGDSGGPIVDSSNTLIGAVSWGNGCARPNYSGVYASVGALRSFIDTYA

B1: Bowman-Birk inhibitor (commercial preparation, Cat # T-9777, Sigma-Aldrich) (protein, UniProt P01055 40-110, looked up)
chain: DDESSKPCCDQCACTKSNPPQCRCSDMRLNSCHSACKSCICALSYPAQCFCVDITDFCYEPCKPSEDDKEN
- % residual activity at 0.00048 mg/ml Bowman-Birk inhibitor (% residual activity) [1]: 78
- % residual activity at 0.00097 mg/ml Bowman-Birk inhibitor (% residual activity) [1]: 71
- % residual activity at 0.00195 mg/ml Bowman-Birk inhibitor (% residual activity) [1]: 57
- % residual activity at 0.0039 mg/ml Bowman-Birk inhibitor (% residual activity) [1]: 55
- % residual activity at 0.0078 mg/ml Bowman-Birk inhibitor (% residual activity) [1]: 43
- % residual activity at 0.0156 mg/ml Bowman-Birk inhibitor (% residual activity) [1]: 29
- % residual activity at 0.0313 mg/ml Bowman-Birk inhibitor (% residual activity) [1]: 19
- % residual activity at 0.0625 mg/ml Bowman-Birk inhibitor (% residual activity) [1]: 7.2
- % residual activity at 0.125 mg/ml Bowman-Birk inhibitor (% residual activity) [1]: 3.1
- % residual activity at 0.25 mg/ml Bowman-Birk inhibitor (% residual activity) [1]: 1.2
- % residual activity at 0.5 mg/ml Bowman-Birk inhibitor (% residual activity) [1]: 0.5
- % residual activity at 0.00048 mg/ml Bowman-Birk inhibitor (% residual activity) (bovine trypsin (bovine)): 0.9
- % residual activity at 0.00097 mg/ml Bowman-Birk inhibitor (% residual activity) (bovine trypsin (bovine)): 5.3
- % residual activity at 0.00195 mg/ml Bowman-Birk inhibitor (% residual activity) (bovine trypsin (bovine)): 0.1
- % residual activity at 0.0039 mg/ml Bowman-Birk inhibitor (% residual activity) (bovine trypsin (bovine)): -0.4
- % residual activity at 0.0078 mg/ml Bowman-Birk inhibitor (% residual activity) (bovine trypsin (bovine)): 0
- % residual activity at 0.0156 mg/ml Bowman-Birk inhibitor (% residual activity) (bovine trypsin (bovine)): -1.5
- % residual activity at 0.0313 mg/ml Bowman-Birk inhibitor (% residual activity) (bovine trypsin (bovine)): 0.1
- % residual activity at 0.0625 mg/ml Bowman-Birk inhibitor (% residual activity) (bovine trypsin (bovine)): 0
- % residual activity at 0.125 mg/ml Bowman-Birk inhibitor (% residual activity) (bovine trypsin (bovine)): 0
- % residual activity at 0.25 mg/ml Bowman-Birk inhibitor (% residual activity) (bovine trypsin (bovine)): 0
- % residual activity at 0.5 mg/ml Bowman-Birk inhibitor (% residual activity) (bovine trypsin (bovine)): 0
- % residual activity at 0.00048 mg/ml Bowman-Birk inhibitor (% residual activity) [2]: 104
- % residual activity at 0.00097 mg/ml Bowman-Birk inhibitor (% residual activity) [2]: 107
- % residual activity at 0.00195 mg/ml Bowman-Birk inhibitor (% residual activity) [2]: 94
- % residual activity at 0.0039 mg/ml Bowman-Birk inhibitor (% residual activity) [2]: 97
- % residual activity at 0.0078 mg/ml Bowman-Birk inhibitor (% residual activity) [2]: 84
- % residual activity at 0.0156 mg/ml Bowman-Birk inhibitor (% residual activity) [2]: 66
- % residual activity at 0.0313 mg/ml Bowman-Birk inhibitor (% residual activity) [2]: 55
- % residual activity at 0.0625 mg/ml Bowman-Birk inhibitor (% residual activity) [2]: 26
- % residual activity at 0.125 mg/ml Bowman-Birk inhibitor (% residual activity) [2]: 9.5
- % residual activity at 0.25 mg/ml Bowman-Birk inhibitor (% residual activity) [2]: 2.9
- % residual activity at 0.5 mg/ml Bowman-Birk inhibitor (% residual activity) [2]: 1.3
- % residual activity at 0.00048 mg/ml Bowman-Birk inhibitor (% residual activity) [3]: 11
- % residual activity at 0.00097 mg/ml Bowman-Birk inhibitor (% residual activity) [3]: 9.4
- % residual activity at 0.00195 mg/ml Bowman-Birk inhibitor (% residual activity) [3]: 8.3
- % residual activity at 0.0039 mg/ml Bowman-Birk inhibitor (% residual activity) [3]: 6.2
- % residual activity at 0.0078 mg/ml Bowman-Birk inhibitor (% residual activity) [3]: 3.2
- % residual activity at 0.0156 mg/ml Bowman-Birk inhibitor (% residual activity) [3]: 2.2
- % residual activity at 0.0313 mg/ml Bowman-Birk inhibitor (% residual activity) [3]: 1
- % residual activity at 0.0625 mg/ml Bowman-Birk inhibitor (% residual activity) [3]: 0.4
- % residual activity at 0.125 mg/ml Bowman-Birk inhibitor (% residual activity) [3]: 0.2
- % residual activity at 0.25 mg/ml Bowman-Birk inhibitor (% residual activity) [3]: 0.1
- % residual activity at 0.5 mg/ml Bowman-Birk inhibitor (% residual activity) [3]: 0.1
- % residual activity at 0.00048 mg/ml Bowman-Birk inhibitor (% residual activity) [4]: 117
- % residual activity at 0.00097 mg/ml Bowman-Birk inhibitor (% residual activity) [4]: 111
- % residual activity at 0.00195 mg/ml Bowman-Birk inhibitor (% residual activity) [4]: 103
- % residual activity at 0.0039 mg/ml Bowman-Birk inhibitor (% residual activity) [4]: 109
- % residual activity at 0.0078 mg/ml Bowman-Birk inhibitor (% residual activity) [4]: 82
- % residual activity at 0.0156 mg/ml Bowman-Birk inhibitor (% residual activity) [4]: 61
- % residual activity at 0.0313 mg/ml Bowman-Birk inhibitor (% residual activity) [4]: 32
- % residual activity at 0.0625 mg/ml Bowman-Birk inhibitor (% residual activity) [4]: 13
- % residual activity at 0.125 mg/ml Bowman-Birk inhibitor (% residual activity) [4]: 5.8
- % residual activity at 0.25 mg/ml Bowman-Birk inhibitor (% residual activity) [4]: 2.2
- % residual activity at 0.5 mg/ml Bowman-Birk inhibitor (% residual activity) [4]: 0.8
